US20230265151A1, “GIP/GLP1 CO-AGONIST COMPOUNDS” (priority 2020, published 2023)
*1 amine or outer side, *2 acyl side, *3 side chain or, on linkers, in order; H or OH if unused. Where no end group is shown, it is not given here. Side-chain parts run from the residue outwards. [ ]: non-standard residue; d: D form. The star is where a group is joined. Butanoyl(4-(4-tBuPh)) = CC(C)(C)c1ccc(CCCC(=O)*)cc1; αMePhe(2-F) = C[C@](N)(Cc1ccccc1F)C(=O)O; γGlu = O=C(O)[C@H](CCC(=O)[*:2])N[*:1]; αMeY = C[C@](N)(Cc1ccc(O)cc1)C(=O)O; αMeL = CC(C)C[C@](C)(N)C(=O)O; Orn = NCCC[C@H](N)C(=O)O; AEEA = NCCOCCOCC(=O)O; Aib = CC(C)(N)C(=O)O

Experiments:
Assay in all cases: cell-based or functional assay
[1] = target: T1, human glucose-dependent insulinotropic polypeptide (GIP) receptor (human, UniProt P48546 22-466)
T1 sequence (looked up): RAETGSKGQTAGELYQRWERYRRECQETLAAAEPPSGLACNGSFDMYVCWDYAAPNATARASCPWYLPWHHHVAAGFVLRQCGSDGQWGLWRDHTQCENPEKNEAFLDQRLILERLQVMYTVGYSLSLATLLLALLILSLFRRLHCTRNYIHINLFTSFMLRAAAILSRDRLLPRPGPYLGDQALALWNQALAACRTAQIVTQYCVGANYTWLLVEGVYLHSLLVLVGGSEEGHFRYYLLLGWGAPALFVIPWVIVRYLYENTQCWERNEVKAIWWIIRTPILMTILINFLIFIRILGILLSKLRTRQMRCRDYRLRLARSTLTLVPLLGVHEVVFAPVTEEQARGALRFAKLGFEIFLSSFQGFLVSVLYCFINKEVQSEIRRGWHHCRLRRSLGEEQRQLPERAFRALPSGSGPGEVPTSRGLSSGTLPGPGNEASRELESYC

[2] = target: human glucagon-like peptide-1 (GLP-1) receptor (human, UniProt P43220 24-463)
[3] = target: human glucagon receptor (human, UniProt P47871 26-477)

Y[Aib]EGT[αMePhe(2-F)]TSDV[Aib]I[αMeL]LD[Orn]K([AEEA-AEEA-γGlu-Butanoyl(4-(4-tBuPh))])AQ[Aib]EFI[dE][αMeY]LIEGGK([AEEA-AEEA-γGlu-Butanoyl(4-(4-tBuPh))])SSGAPPPS-NH2 [Example 177]
cAMP EC50 [1]: 0.0433 nM
cAMP Emax [1]: 113%
cAMP EC50 [2]: 0.178 nM

B1: Y-Aib-EGT-αMeF(2F)-TSD-4Pal-SI-αMeL-LD-Orn-K((2-[2-(2-Amino-ethoxy)-ethoxy]-acetyl)2-(γ-Glu)-CO-(CH2)12-CO2H)AQ-Aib-EFI-(D-Glu)-αMeY-LIEGGK((2-[2-(2-Amino-ethox … (peptide)
peptide: YXEGTXTSDXSIXLDXKAQXEFIXXLIEGGKSSGAPPPS
modifications: Aib2, αMeF(2F)6, 4Pal10, αMeL13, Orn16, Aib20, D-Glu24, αMeY25; acylated K17, K31 (groups as in name); C-terminal amide
cAMP EC50 (1.0% HSA) [3]: > 9.95 µM

B2: Y-Aib-EGT-αMeF(2F)-TSD-4Pal-SI-αMeL-LD-Orn-K((2-[2-(2-Amino-ethoxy)-ethoxy]-acetyl)-(γ-Glu)-(10-(4-carboxyphenoxy)decanoyl))AQ-Aib-EFI-(D-Glu)-αMeY-LIEGGK((2-[2 … (peptide)
peptide: YXEGTXTSDXSIXLDXKAQXEFIXXLIEGGKSSGAPPPS
modifications: Aib2, αMeF(2F)6, 4Pal10, αMeL13, Orn16, Aib20, D-Glu24, αMeY25; acylated K17, K31 (groups as in name); C-terminal amide
cAMP EC50 (1.0% HSA) [3]: > 9.95 µM

B3: Y-Aib-EGT-αMeF(2F)-TSD-4Pal-SI-αMeL-LD-Orn-K((2-[2-(2-Amino-ethoxy)-ethoxy]-acetyl)2-(γ-Glu)-CO-(CH2)10-CH3)AQ-Aib-EFI-(D-Glu)-αMeY-LIEGGK((2-[2-(2-Amino-ethoxy … (peptide)
peptide: YXEGTXTSDXSIXLDXKAQXEFIXXLIEGGKSSGAPPPS
modifications: Aib2, αMeF(2F)6, 4Pal10, αMeL13, Orn16, Aib20, D-Glu24, αMeY25; acylated K17, K31 (groups as in name); C-terminal amide
cAMP EC50 (1.0% HSA) [3]: > 9.95 µM

B4: Y-Aib-EGT-αMeF(2F)-TSD-4Pal-SI-αMeL-LD-Orn-K((2-[2-(2-Amino-ethoxy)-ethoxy]-acetyl)2-(γ-Glu)-(4-(4-iodophenyl)butanoyl))AQ-Aib-EFI-(D-Glu)-αMeY-LIEGGK((2-[2-(2- … (peptide)
peptide: YXEGTXTSDXSIXLDXKAQXEFIXXLIEGGKSSGAPPPS
modifications: Aib2, αMeF(2F)6, 4Pal10, αMeL13, Orn16, Aib20, D-Glu24, αMeY25; acylated K17, K31 (groups as in name); C-terminal amide
cAMP EC50 (1.0% HSA) [3]: > 9.95 µM

B5: Y-Aib-EGT-αMeF(2F)-TSD-4Pal-SI-αMeL-LD-Orn-K((2-[2-(2-Amino-ethoxy)-ethoxy]-acetyl)-(γ-Glu)-CO-(CH2)12-CO2H)AQ-Aib-EFI-(D-Glu)-αMeY-LIEGGK((2-[2-(2-Amino-ethoxy … (peptide)
peptide: YXEGTXTSDXSIXLDXKAQXEFIXXLIEGGKSSGAPPPS
modifications: Aib2, αMeF(2F)6, 4Pal10, αMeL13, Orn16, Aib20, D-Glu24, αMeY25; acylated K17, K31 (groups as in name); C-terminal amide
cAMP EC50 (1.0% HSA) [3]: > 9.95 µM

B6: Y-Aib-EGT-αMeF(2F)-TSD-4Pal-SI-αMeL-LD-Orn-K((2-[2-(2-Amino-ethoxy)-ethoxy]-acetyl)2-(10-(4-carboxyphenoxy)decanoyl))AQ-Aib-EFI-(D-Glu)-αMeY-LIEGGK((2-[2-(2-Ami … (peptide)
peptide: YXEGTXTSDXSIXLDXKAQXEFIXXLIEGGKSSGAPPPS
modifications: Aib2, αMeF(2F)6, 4Pal10, αMeL13, Orn16, Aib20, D-Glu24, αMeY25; acylated K17, K31 (groups as in name); C-terminal amide
cAMP EC50 (1.0% HSA) [3]: > 9.95 µM

B7: Y-Aib-EGT-αMeF(2F)-TSD-4Pal-SI-αMeL-LD-Orn-K((2-[2-(2-Amino-ethoxy)-ethoxy]-acetyl)2-CO-(CH2)12-CO2H)AQ-Aib-EFI-(D-Glu)-αMeY-LIEGGK((2-[2-(2-Amino-ethoxy)-ethox … (peptide)
peptide: YXEGTXTSDXSIXLDXKAQXEFIXXLIEGGKSSGAPPPS
modifications: Aib2, αMeF(2F)6, 4Pal10, αMeL13, Orn16, Aib20, D-Glu24, αMeY25; acylated K17, K31 (groups as in name); C-terminal amide
cAMP EC50 (1.0% HSA) [3]: > 9.95 µM
